According to patent US20200109446A1:

Assays:
[1] = tested on: T. fusca Type I-E CRISPR-Cas (Cascade) effector complex
[2] = biological target: Cascade lacking the Cse1 subunit (T. fusca); assay: EMSA, target DNA with a mismatch to the crRNA at position +1
[3] = biological target: Cascade lacking the Cse1 subunit (T. fusca); assay: EMSA, target DNA with a changed PAM and a mismatch at position +1

T. fusca Cas3
Cas3 nuclease activity [1]: impaired Cas3 recruitment also reduced Cas3 nuclease activity when ATP and Co^+2 were added to the reaction mixtures

free Cse1 (T. fusca)
percent of Cascade complexes converted to the faster-migrating species (Cascade lacking Cse1) [2]: 80%
percent of Cascade complexes converted to the faster-migrating species (Cascade lacking Cse1) [3]: 100%
